{
  "source": "paper PMC7937890",
  "system": "T1, RsmE-His6 (Pseudomonas putida KT2440), ORF:50140dbc",
  "T1 sequence": "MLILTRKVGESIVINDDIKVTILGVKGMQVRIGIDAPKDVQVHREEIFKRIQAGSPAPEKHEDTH",
  "experiment": "EMSA",
  "conditions": "1x binding buffer (composition only cited), RNA 5 or 10 nM, 30 min at 30 C, with or without 100-fold unlabeled competitor RNA; 6% non-denaturing PAGE in TBE at …",
  "data": [
    {"sequence": "GGGUUCUAAGAUUGGAUCCACUGUUAAUCUUUACCACAUGGACGUUGCGCAGGAAGCGCAAAGGACAGAUCAAGGACGACGACGAAGGACCACCUGCCAGGAUGGCGGGGCGAUACGGAUGUCACAGGGAAACAGUCUGGAAAACCCCGCUUCGGCGGGGGGGGGUUUUUUUUGCGGCCGCUUUU [rsmY full-length RNA]", "values": [
      {"measurement": "binding", "value": "binds"}
    ]}
  ]
}
